Measured values: US20050123549A1
pKd: −log10 of the molar value.

Columns and labels:
[1] = target: Muc1 mucin carrying the CA6 sialoglycotope (human) (UniProt P15941); assay: flow cytometry on KB cells
[2] = target: Muc1 on DS6 negative & CM1 positive cell lines (KLE, OVCAR3, SKOV3), without the CA6 epitope (human) (UniProt P15941); assay: flow cytometry on KLE cells
[3] = target: Muc1 mucin carrying the CA6 sialoglycotope (human) (UniProt P15941); assay: flow cytometry on HeLa cells
[4] = target: Muc1 mucin carrying the CA6 sialoglycotope (human) (UniProt P15941); assay: flow cytometry on MCF7 cells
[5] = target: Muc1 mucin carrying the CA6 sialoglycotope (human) (UniProt P15941); assay: flow cytometry on BT549 cells
[6] = target: Muc1 mucin carrying the CA6 sialoglycotope (human) (UniProt P15941); assay: flow cytometry on CaOV3 cells
[7] = target: Muc1 on DS6 negative & CM1 positive cell lines (KLE, OVCAR3, SKOV3), without the CA6 epitope (human) (UniProt P15941); assay: flow cytometry on SKOV3 cells
[8] = target: Muc1 on DS6 negative & CM1 positive cell lines (KLE, OVCAR3, SKOV3), without the CA6 epitope (human) (UniProt P15941); assay: flow cytometry on OVCAR3 cells
[9] = target: Muc1 mucin carrying the CA6 sialoglycotope (human) (UniProt P15941); assay: flow cytometry on KB cells, apparent Kd
[10] = target: Muc1 on DS6 negative & CM1 positive cell lines (KLE, OVCAR3, SKOV3), without the CA6 epitope (human) (UniProt P15941); assay: flow cytometry on KLE cells, apparent Kd
[11] = target: Muc1 mucin carrying the CA6 sialoglycotope (human) (UniProt P15941); assay: flow cytometry on HeLa cells, apparent Kd
[12] = target: Muc1 mucin carrying the CA6 sialoglycotope (human) (UniProt P15941); assay: flow cytometry on MCF7 cells, apparent Kd
[13] = target: Muc1 mucin carrying the CA6 sialoglycotope (human) (UniProt P15941); assay: flow cytometry on BT549 cells, apparent Kd
[14] = target: Muc1 mucin carrying the CA6 sialoglycotope (human) (UniProt P15941); assay: flow cytometry on CaOV3 cells, apparent Kd
[15] = target: Muc1 on DS6 negative & CM1 positive cell lines (KLE, OVCAR3, SKOV3), without the CA6 epitope (human) (UniProt P15941); assay: flow cytometry on SKOV3 cells, apparent Kd
[16] = target: Muc1 on DS6 negative & CM1 positive cell lines (KLE, OVCAR3, SKOV3), without the CA6 epitope (human) (UniProt P15941); assay: flow cytometry on OVCAR3 cells, apparent Kd

In the case of CM1 antibody (Muc1 VNTR antibody), the MMF (maximum mean relative fluorescence) [1] was 338, the MMF (maximum mean relative fluorescence) [2] was 562 and the MMF (maximum mean relative fluorescence) [3] was 335. It also gave an MMF (maximum mean relative fluorescence) [4] of 1020, an MMF (maximum mean relative fluorescence) [5] of 188 and an MMF (maximum mean relative fluorescence) [6] of 1030. It also gave an MMF (maximum mean relative fluorescence) [7] of 49.4, an MMF (maximum mean relative fluorescence) [8] of 192 and a pKd [9] of 8.27. It also gave a pKd [10] of 8.09, a pKd [11] of 8.54 and a pKd [12] of 8.06. It also gave a pKd [13] of 8.22, a pKd [14] of 8.13 and a pKd [15] of 8.20. It also gave a pKd [16] of 8.23.
